# Columns and labels:
# Test in all cases: cell-based or functional assay
# [1] = biological target: GBSIII-OVAp (GBSIII conjugated to N-acetylated, C-terminally extended OVA323-339)
# [2] = biological target: OVA peptide 323-339 (OVAp)
# [3] = biological target: scrambled OVA peptide, scOVAp
substance,measurement,setting,value
T-cell receptor of DO11.10 transgenic mice that recognizes OVA peptide 323-339 in the context of MHC class II (I-A^d) (TCR),"T cell proliferation, [3H]thymidine incorporation, 10 µg GBSIII-OVAp",[1],12700 cpm
same,fold lower T cell proliferation against the same amount of OVAp,[1],23 fold
same,"T cell proliferation, [3H]thymidine incorporation, 2.5 µg OVAp",[2],285000 cpm
same,"T cell proliferation, stimulation index (SI), 0.013 µg OVAp",[2],35 SI
same,"T cell proliferation, stimulation index (SI), 0.13 µg OVAp",[2],781 SI
same,"T cell proliferation, stimulation index (SI), 1.3 µg OVAp",[2],2940 SI
same,"T cell proliferation, [3H]thymidine incorporation",[3],< 500 cpm

# Source: US9358302
